According to patent US20140087995A1 (published 2014):
Numbered stars: 1 amine (or outer) side, 2 acyl side, 3 side chain; on linkers, the order of the positions; unused ones are H or OH. Bridge positions count the residues as written; N and C are the ends. Side chains are listed from the residue outwards. Ends that are not written are not given here. * marks the point of attachment. C20 diacid = O=C(O)CCCCCCCCCCCCCCCCCCC(=O)*; γGlu = O=C(O)[C@H](CCC(=O)[*:2])N[*:1]; AEEA = NCCOCCOCC(=O)O

T1: rat calcitonin receptor (rat, UniProt P32214 25-516)
T1 construct: whole, on cells; Membranes of transiently transfected BHK tk'ts 13 cells (Assay VIII); also called rCTR
T1 sequence (looked up): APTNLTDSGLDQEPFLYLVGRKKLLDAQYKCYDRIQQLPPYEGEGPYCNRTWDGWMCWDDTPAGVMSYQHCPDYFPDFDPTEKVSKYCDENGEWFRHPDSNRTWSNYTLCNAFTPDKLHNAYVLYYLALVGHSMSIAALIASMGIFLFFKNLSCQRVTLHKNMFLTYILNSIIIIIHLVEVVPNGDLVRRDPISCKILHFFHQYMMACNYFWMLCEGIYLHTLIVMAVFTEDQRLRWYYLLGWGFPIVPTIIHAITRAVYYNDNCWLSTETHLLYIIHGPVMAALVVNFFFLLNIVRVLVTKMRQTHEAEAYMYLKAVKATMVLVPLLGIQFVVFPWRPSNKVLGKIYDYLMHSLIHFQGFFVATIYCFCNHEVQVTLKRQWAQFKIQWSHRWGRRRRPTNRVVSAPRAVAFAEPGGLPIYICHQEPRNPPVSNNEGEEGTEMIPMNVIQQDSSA

T2: rat amylin receptor (rat calcitonin receptor + rat RAMP 3) (rat, UniProt P32214 25-516; Q9JJ73 23-147)
T2 construct: whole, on cells; Membranes of transiently transfected BHK tk'ts 13 cells (Assay VI); also called rAmylin-R; rat amylin 3(a) receptor
T2 sequence (looked up) 1: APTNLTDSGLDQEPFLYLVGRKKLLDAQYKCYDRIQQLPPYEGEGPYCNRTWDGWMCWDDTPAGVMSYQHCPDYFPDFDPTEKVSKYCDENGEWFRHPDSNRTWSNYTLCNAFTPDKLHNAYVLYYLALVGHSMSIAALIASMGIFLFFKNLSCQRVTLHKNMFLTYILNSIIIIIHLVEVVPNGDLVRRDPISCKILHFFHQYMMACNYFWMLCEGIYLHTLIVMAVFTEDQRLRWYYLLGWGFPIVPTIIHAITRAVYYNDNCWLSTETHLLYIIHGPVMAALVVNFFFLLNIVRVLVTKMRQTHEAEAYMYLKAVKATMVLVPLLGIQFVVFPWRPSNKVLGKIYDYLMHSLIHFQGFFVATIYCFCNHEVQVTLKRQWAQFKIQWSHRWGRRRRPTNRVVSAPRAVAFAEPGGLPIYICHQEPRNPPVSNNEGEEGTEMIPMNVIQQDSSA
T2 sequence (looked up) 2: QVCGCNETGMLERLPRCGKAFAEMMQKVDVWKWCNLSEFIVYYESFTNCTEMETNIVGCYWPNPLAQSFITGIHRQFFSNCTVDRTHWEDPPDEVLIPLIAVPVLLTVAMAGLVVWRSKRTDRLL

T3: human calcitonin receptor (human, UniProt P30988 25-474)
T3 construct: whole, on cells; Membranes of a stably transfected BHK cell line (Assay VII); also called hCTR; hCT
T3 sequence (looked up): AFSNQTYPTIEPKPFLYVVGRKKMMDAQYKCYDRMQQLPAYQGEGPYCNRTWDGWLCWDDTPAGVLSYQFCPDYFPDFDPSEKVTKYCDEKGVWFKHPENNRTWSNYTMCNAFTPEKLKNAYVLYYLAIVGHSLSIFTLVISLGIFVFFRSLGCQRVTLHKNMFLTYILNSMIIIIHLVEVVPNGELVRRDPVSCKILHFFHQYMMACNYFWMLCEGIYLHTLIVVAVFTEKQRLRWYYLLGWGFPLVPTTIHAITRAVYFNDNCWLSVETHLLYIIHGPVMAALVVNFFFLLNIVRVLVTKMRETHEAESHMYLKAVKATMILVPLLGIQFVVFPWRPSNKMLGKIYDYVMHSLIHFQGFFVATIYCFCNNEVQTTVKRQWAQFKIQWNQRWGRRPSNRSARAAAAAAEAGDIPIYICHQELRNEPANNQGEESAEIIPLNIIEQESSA


Key:
[1] = target: T1, rat calcitonin receptor; assay: ratio IC50 rat calcitonin receptor / IC50 rat amylin receptor (reference)
[2] = target: T2, rat amylin receptor (rat calcitonin …); assay: SPA competition with 125I-rat amylin, membranes of BHK cells with rat calcitonin receptor + rat RAMP3 (Assay VI)
[3] = target: T3, human calcitonin receptor; assay: ratio IC50 human calcitonin receptor / IC50 human amylin receptor (reference)
Procedure: The resulting pellet was resuspended, homogenized and centrifuged (20.000 rpm, 15 min) in a buffer containing 20 mM Na-HEPES and 0.1 mM EDTA (pH 7.4, buffer 2). The resulting pellet was resuspended in buffer 2 and protein concentration was measured (BCA protein Assay, Pierce). The homogenate was kept cold during the whole procedure. The membranes were kept at −80° C. until use. The assay was performed in a 384 well Optiplate (PerkinElmer) in a total volume of 40 ul. Membranes were mixed with SPA beads. Final concentration of membranes 35 ng/μL final and SPA beads was 0.05 mg/well. Test-compounds were dissolved in DMSO and further diluted in assay buffer (50 mM Hepes, pH 7.4, 1 mM CaCl2, 5 mM MgCl₂, 0.1% OA and 0.02% Tween20). […] The final mixture was incubated with shaking at 400 rpm for 120 min at 25° C. prior to centrifugation (1500 rpm, 10 min). Samples were analyzed on TopCounter™ (Packard). The IC₅₀ was calculated using (one site binding competition analysis) GraphPad Prism5 as a measure of receptor affinity.
Membranes were prepared in the following way; the cells were rinsed with PBS and incubated with Versene for approximately 5 min before harvesting. The cells were flushed with PBS and the cell-suspension was centrifuged for 5 min at 1000 rpm. Cells were homogenized (Ultrathurrax) in a buffer containing 20 mM Na-HEPES and 10 mM EDTA (pH 7.4) and centrifuged at 20.000 rpm for 15 min. The resulting pellet was resuspended, homogenized and centrifuged (20.000 rpm, 15 min) in a buffer containing 20 mM Na-HEPES and 0.1 mM EDTA (pH 7.4, buffer 2). The resulting pellet was resuspended in buffer 2 and protein concentration was measured (BCA protein Assay, Pierce). The homogenate was kept cold during the whole procedure. The membranes were kept at −80° C. until use. Assay was performed in a 384 well Optiplate (PerkinElmer) in a total volume of 40 ul. Membranes were mixed with SPA beads.

[4] = target: T1, rat calcitonin receptor; assay: SPA competition with 125I-calcitonin, membranes of BHK cells with rat calcitonin receptor (Assay VIII)

Binder | Ratio rCT/rAmylin binding [1] | IC50 [2] | Ratio hCT/hAmylin binding [3] | IC50 [4]
K([AEEA-AEEA-γGlu-C20 diacid])CNTATCATQRLANFLRHSSPNFGAIPSSTNVGHNTY-NH2 (disulfide 2-7; N-terminus assumed; SMILES CC[C@H](C)[C@H](NC(=O)[C@H](C)NC(=O)CNC(=O)[C@H](Cc1ccccc1)NC(=O)[C@H](CC(N)=O)NC(=O)[C@@H]1CCCN1C(=O)[C@H](CO)NC(=O)[C@H](CO)NC(=O)[C@H](Cc1c[nH]cn1)NC(=O)[C@H](CCCNC(=N)N)NC(=O)[C@H](CC(C)C)NC(=O)[C@H](Cc1ccccc1)NC(=O)[C@H](CC(N)=O)NC(=O)[C@H](C)NC(=O)[C@H](CC(C)C)NC(=O)[C@H](CCCNC(=N)N)NC(=O)[C@H](CCC(N)=O)NC(=O)[C@@H](NC(=O)[C@H](C)NC(=O)[C@@H]1CSSC[C@H](NC(=O)[C@@H](N)CCCCNC(=O)COCCOCCNC(=O)COCCOCCNC(=O)CC[C@H](NC(=O)CCCCCCCCCCCCCCCCCCC(=O)O)C(=O)O)C(=O)N[C@@H](CC(N)=O)C(=O)N[C@@H]([C@@H](C)O)C(=O)N[C@@H](C)C(=O)N[C@@H]([C@@H](C)O)C(=O)N1)[C@@H](C)O)C(=O)N1CCC[C@H]1C(=O)N[C@@H](CO)C(=O)N[C@@H](CO)C(=O)N[C@H](C(=O)N[C@@H](CC(N)=O)C(=O)N[C@H](C(=O)NCC(=O)N[C@@H](Cc1c[nH]cn1)C(=O)N[C@@H](CC(N)=O)C(=O)N[C@H](C(=O)N[C@@H](Cc1ccc(O)cc1)C(N)=O)[C@@H](C)O)C(C)C)[C@@H](C)O, also called compound 97) | 71.1 | 2.24 nM | 104 | 159 nM
K([AEEA-AEEA-γGlu-C20 diacid])CNTATCATQRLANFLRHSSPNFGAIPSSTNVGPNTY-NH2 (disulfide 2-7; N-terminus assumed; SMILES CC[C@H](C)[C@H](NC(=O)[C@H](C)NC(=O)CNC(=O)[C@H](Cc1ccccc1)NC(=O)[C@H](CC(N)=O)NC(=O)[C@@H]1CCCN1C(=O)[C@H](CO)NC(=O)[C@H](CO)NC(=O)[C@H](Cc1c[nH]cn1)NC(=O)[C@H](CCCNC(=N)N)NC(=O)[C@H](CC(C)C)NC(=O)[C@H](Cc1ccccc1)NC(=O)[C@H](CC(N)=O)NC(=O)[C@H](C)NC(=O)[C@H](CC(C)C)NC(=O)[C@H](CCCNC(=N)N)NC(=O)[C@H](CCC(N)=O)NC(=O)[C@@H](NC(=O)[C@H](C)NC(=O)[C@@H]1CSSC[C@H](NC(=O)[C@@H](N)CCCCNC(=O)COCCOCCNC(=O)COCCOCCNC(=O)CC[C@H](NC(=O)CCCCCCCCCCCCCCCCCCC(=O)O)C(=O)O)C(=O)N[C@@H](CC(N)=O)C(=O)N[C@@H]([C@@H](C)O)C(=O)N[C@@H](C)C(=O)N[C@@H]([C@@H](C)O)C(=O)N1)[C@@H](C)O)C(=O)N1CCC[C@H]1C(=O)N[C@@H](CO)C(=O)N[C@@H](CO)C(=O)N[C@H](C(=O)N[C@@H](CC(N)=O)C(=O)N[C@H](C(=O)NCC(=O)N1CCC[C@H]1C(=O)N[C@@H](CC(N)=O)C(=O)N[C@H](C(=O)N[C@@H](Cc1ccc(O)cc1)C(N)=O)[C@@H](C)O)C(C)C)[C@@H](C)O, also called compound 98) | 176 | 0.137 nM | 74.1 | 24.1 nM

The remaining binders from weak to strong by IC50 [2], led by results:

Ratio rCT/rAmylin binding [1] | IC50 [2] | Ratio hCT/hAmylin binding [3] | IC50 [4] | Binder
94.3 | 5.05 nM | 120 | 477 nM | K([AEEA-γGlu-C20 diacid])CNTATCATQRLAHFLRHSSPNFGAIPSSTNVGRNTY-NH2 (disulfide 2-7; N-terminus assumed; SMILES CC[C@H](C)[C@H](NC(=O)[C@H](C)NC(=O)CNC(=O)[C@H](Cc1ccccc1)NC(=O)[C@H](CC(N)=O)NC(=O)[C@@H]1CCCN1C(=O)[C@H](CO)NC(=O)[C@H](CO)NC(=O)[C@H](Cc1c[nH]cn1)NC(=O)[C@H](CCCNC(=N)N)NC(=O)[C@H](CC(C)C)NC(=O)[C@H](Cc1ccccc1)NC(=O)[C@H](Cc1c[nH]cn1)NC(=O)[C@H](C)NC(=O)[C@H](CC(C)C)NC(=O)[C@H](CCCNC(=N)N)NC(=O)[C@H](CCC(N)=O)NC(=O)[C@@H](NC(=O)[C@H](C)NC(=O)[C@@H]1CSSC[C@H](NC(=O)[C@@H](N)CCCCNC(=O)COCCOCCNC(=O)CC[C@H](NC(=O)CCCCCCCCCCCCCCCCCCC(=O)O)C(=O)O)C(=O)N[C@@H](CC(N)=O)C(=O)N[C@@H]([C@@H](C)O)C(=O)N[C@@H](C)C(=O)N[C@@H]([C@@H](C)O)C(=O)N1)[C@@H](C)O)C(=O)N1CCC[C@H]1C(=O)N[C@@H](CO)C(=O)N[C@@H](CO)C(=O)N[C@H](C(=O)N[C@@H](CC(N)=O)C(=O)N[C@H](C(=O)NCC(=O)N[C@@H](CCCNC(=N)N)C(=O)N[C@@H](CC(N)=O)C(=O)N[C@H](C(=O)N[C@@H](Cc1ccc(O)cc1)C(N)=O)[C@@H](C)O)C(C)C)[C@@H](C)O, also called compound 84)
118 | 0.529 nM | 79.6 | 62.2 nM | K([AEEA-AEEA-γGlu-C20 diacid])CNTATCATQRLANFLRHSSPNFGAIPSSTPVGSNTY-NH2 (disulfide 2-7; N-terminus assumed; SMILES CC[C@H](C)[C@H](NC(=O)[C@H](C)NC(=O)CNC(=O)[C@H](Cc1ccccc1)NC(=O)[C@H](CC(N)=O)NC(=O)[C@@H]1CCCN1C(=O)[C@H](CO)NC(=O)[C@H](CO)NC(=O)[C@H](Cc1c[nH]cn1)NC(=O)[C@H](CCCNC(=N)N)NC(=O)[C@H](CC(C)C)NC(=O)[C@H](Cc1ccccc1)NC(=O)[C@H](CC(N)=O)NC(=O)[C@H](C)NC(=O)[C@H](CC(C)C)NC(=O)[C@H](CCCNC(=N)N)NC(=O)[C@H](CCC(N)=O)NC(=O)[C@@H](NC(=O)[C@H](C)NC(=O)[C@@H]1CSSC[C@H](NC(=O)[C@@H](N)CCCCNC(=O)COCCOCCNC(=O)COCCOCCNC(=O)CC[C@H](NC(=O)CCCCCCCCCCCCCCCCCCC(=O)O)C(=O)O)C(=O)N[C@@H](CC(N)=O)C(=O)N[C@@H]([C@@H](C)O)C(=O)N[C@@H](C)C(=O)N[C@@H]([C@@H](C)O)C(=O)N1)[C@@H](C)O)C(=O)N1CCC[C@H]1C(=O)N[C@@H](CO)C(=O)N[C@@H](CO)C(=O)N[C@H](C(=O)N1CCC[C@H]1C(=O)N[C@H](C(=O)NCC(=O)N[C@@H](CO)C(=O)N[C@@H](CC(N)=O)C(=O)N[C@H](C(=O)N[C@@H](Cc1ccc(O)cc1)C(N)=O)[C@@H](C)O)C(C)C)[C@@H](C)O, also called compound 96)
